Experimental data taken from patent US5262522, “Receptor for oncostatin M and leukemia inhibitory factor” (Immunex Corporation, dated 1993).

B1: Receptor comprising gp130 (B10G) and LIF-R (pHLIFR-65) co-expressed on COS-7 cells (receptor)
chain 1: ELLDPCGYISPESPVVQLHSNFTAVCVLKEKCMDYFHVNANYIVWKTNHFTIPKEQYTIINRTASSVTFTDIASLNIQLTCNILTFGQLEQNVYGITIISGLPPEKPKNLSCIVNEGKKMRCEWDGGRETHLETNFTLKSEWATHKFADCKAKRDTPTSCTVDYSTVYFVNIEVWVEAENALGKVTSDHINFDPVYKVKPNPPHNLSVINSEELSSILKLTWTNPSIKSVIILKYNIQYRTKDASTWSQIPPEDTASTRSSFTVQDLKPFTEYVFRIRCMKEDGKGYWSDWSEEASGITYEDRPSKAPSFWYKIDPSHTQGYRTVQLVWKTLPPFEANGKILDYEVTLTRWKSHLQNYTVNATKLTVNLTNDRYLATLTVRNLVGKSDAAVLTIPACDFQATHPVMDLKAFPKDNMLWVEWTTPRESVKKYILEWCVLSDKAPCITDWQQEDGTVHRTYLRGNLAESKCYLITVTPVYADGPGSPESIKAYLKQAPPSKGPTVRTKKVGKNEAVLEWDQLPVDVQNGFIRNYTIFYRTIIGNETAVNVDSSHTEYTLSSLTSDTLYMVRMAAYTDEGGKDGPEFTFTTPKFAQGEIEAIVVPVCLAFLLTTLLGVLFCFNKRDLIKKHIWPNVPDPSKSHIAQWSPHTPPRHNFNSKDQMYSDGNFTDVSVVEIEANDKKPFPEDL
chain 2: QKKGAPHDLKCVTNNLQVWNCSWKAPSGTGRGTDYEVCIENRSRSCYQLEKTSIKIPALSHGDYEITINSLHDFGSSTSKFTLNEQNVSLIPDTPEILNLSADFSTSTLYLKWNDRGSVFPHRSNVIWEIKVLRKESMELVKLVTHNTTLNGKDTLHHWSWASDMPLECAIHFVEIRCYIDNLHFSGLEEWSDWSPVKNISWIPDSQTKVFPQDKVILVGSDITFCCVSQEKVLSALIGHTNCPLIHLDGENVAIKIRNISVSASSGTNVVFTTEDNIFGTVIFAGYPPDTPQQLNCETHDLKEIICSWNPGRVTALVGPRATSYTLVESFSGKYVRLKRAEAPTNESYQLLFQMLPNQEIYNFTLNAHNPLGRSQSTILVNITEKVYPHTPTSFKVKDINSTAVKLSWHLPGNFAKINFLCEIEIKKSNSVQEQRNVTIKGVENSSYLVALDKLNPYTLYTFRIRCSTETFWKWSKWSNKKQHLTTEASPSKGPDTWREWSSDGKNLIIYWKPLPINEANGKILSYNVSCSSDEETQSLSEIPDPQHKAEIRLDKNDYIISVVAKNSVGSSPPSKIASMEIPNDDLKIEQVVGMGKGILLTWHYDPNMTCDYVIKWCNSSRSEPCLMDWRKVPSNSTETVIESDEFRPGIRYNFFLYGCRNQGYQLLRSMIGYIEELAPIVAPNFTVEDTSADSILVKWEDIPVEELRGFLRGYLFYFGKGERDTSKMRVLESGRSDIKVKNITDISQKTLRIADLQGKTSYHLVLRAYTDGGVGPEKSMYVVTKENSVGLIIAILIPVAVAVIVGVVTSILCYRKREWIKETFYPDIPNPENCKALQFQKSVCEGSSALKTLEMNPCTPNNVEVLETRSAFPKIEDTEIISPVAERPEDRSDAEPENHVVVSYCPPIIEEEIPNPAADEAGGTAQVIYIDVQSMYQPQAKPEEKKKKSRSSRSKI
B2: Recombinant human leukemia inhibitory factor (LIF) (ligand)
chain: not shown
modifications: radioiodinated (125I) where used as the labelled ligand; non-radiolabeled where used as competitor

Assays:
[1] = molecular target: B2; experiment: Scatchard analysis of 125I-LIF binding to COS-7 cells co-transfected with B10G and pHLIFR-65 (curve A), phthalate oil separation
Procedure: (§1) Host cells transfected with vector(s) encoding LIF-R or gp130 as described below were assayed for the ability to bind LIF. The host cells were the monkey kidney cell line designated COS-7, described by Glutzman, *Cell* 23:175 (1981). In separate transfections, COS-7 cells were transfected with the following combinations of vectors. The different types of transfected cells (and non-transfected control cells) are designated A–F as shown below, and the curves representing the LIF-binding assay data for each transfected or control cell type are also labeled A–F in FIG. 1.
(§2) Briefly, the COS-7 host cells were released from 10 cm tissue culture plates two days after transfection by incubation in non-enzymatic cell dissociation buffer (Sigma) at 37° C. for 30–60 minutes. Cells were then washed with the above-described binding medium and resuspended in binding medium at 5 ×10^6 cells/ml. 50 μl aliquots of the cells were incubated with serial dilutions of ^125I-LIF at room temperature for one hour with agitation (in the presence or absence of a 200-fold excess of unlabeled LIF) in a total volume of 150 μl. The unlabeled LIF allowed for calculation of the non-specific background binding of LIF. […]

[2] = molecular target: B1; experiment: Scatchard analysis of 125I-LIF binding to co-transfected COS-7 cells preincubated with oncostatin M as competitor (curve C)
Procedure: as §1, §2

[3] = molecular target: B2; experiment: 125I-LIF binding to COS-7 cells transfected with B10G and CAV (curve F against curve E), phthalate oil separation, Scatchard
Procedure: as §1, §2

[4] = molecular target: B2; experiment: Scatchard analysis of 125I-LIF binding to COS-7 cells transfected with pHLIFR-65 and CAV (curve B, site 2), phthalate oil separation
Procedure: as §1, §2

B1
Kd [1]: 0.9 nM

B2
KD after preincubation of the cells with non-radiolabeled oncostatin M [2]: 4.2 nM

B3: Human gp130 encoded by plasmid B10G, expressed on COS-7 cells (receptor)
chain: ELLDPCGYISPESPVVQLHSNFTAVCVLKEKCMDYFHVNANYIVWKTNHFTIPKEQYTIINRTASSVTFTDIASLNIQLTCNILTFGQLEQNVYGITIISGLPPEKPKNLSCIVNEGKKMRCEWDGGRETHLETNFTLKSEWATHKFADCKAKRDTPTSCTVDYSTVYFVNIEVWVEAENALGKVTSDHINFDPVYKVKPNPPHNLSVINSEELSSILKLTWTNPSIKSVIILKYNIQYRTKDASTWSQIPPEDTASTRSSFTVQDLKPFTEYVFRIRCMKEDGKGYWSDWSEEASGITYEDRPSKAPSFWYKIDPSHTQGYRTVQLVWKTLPPFEANGKILDYEVTLTRWKSHLQNYTVNATKLTVNLTNDRYLATLTVRNLVGKSDAAVLTIPACDFQATHPVMDLKAFPKDNMLWVEWTTPRESVKKYILEWCVLSDKAPCITDWQQEDGTVHRTYLRGNLAESKCYLITVTPVYADGPGSPESIKAYLKQAPPSKGPTVRTKKVGKNEAVLEWDQLPVDVQNGFIRNYTIFYRTIIGNETAVNVDSSHTEYTLSSLTSDTLYMVRMAAYTDEGGKDGPEFTFTTPKFAQGEIEAIVVPVCLAFLLTTLLGVLFCFNKRDLIKKHIWPNVPDPSKSHIAQWSPHTPPRHNFNSKDQMYSDGNFTDVSVVEIEANDKKPFPEDL
binding result [3]: no binding

B4: Single-polypeptide chain human LIF-R encoded by pHLIFR-65, expressed on COS-7 cells (receptor)
chain: QKKGAPHDLKCVTNNLQVWNCSWKAPSGTGRGTDYEVCIENRSRSCYQLEKTSIKIPALSHGDYEITINSLHDFGSSTSKFTLNEQNVSLIPDTPEILNLSADFSTSTLYLKWNDRGSVFPHRSNVIWEIKVLRKESMELVKLVTHNTTLNGKDTLHHWSWASDMPLECAIHFVEIRCYIDNLHFSGLEEWSDWSPVKNISWIPDSQTKVFPQDKVILVGSDITFCCVSQEKVLSALIGHTNCPLIHLDGENVAIKIRNISVSASSGTNVVFTTEDNIFGTVIFAGYPPDTPQQLNCETHDLKEIICSWNPGRVTALVGPRATSYTLVESFSGKYVRLKRAEAPTNESYQLLFQMLPNQEIYNFTLNAHNPLGRSQSTILVNITEKVYPHTPTSFKVKDINSTAVKLSWHLPGNFAKINFLCEIEIKKSNSVQEQRNVTIKGVENSSYLVALDKLNPYTLYTFRIRCSTETFWKWSKWSNKKQHLTTEASPSKGPDTWREWSSDGKNLIIYWKPLPINEANGKILSYNVSCSSDEETQSLSEIPDPQHKAEIRLDKNDYIISVVAKNSVGSSPPSKIASMEIPNDDLKIEQVVGMGKGILLTWHYDPNMTCDYVIKWCNSSRSEPCLMDWRKVPSNSTETVIESDEFRPGIRYNFFLYGCRNQGYQLLRSMIGYIEELAPIVAPNFTVEDTSADSILVKWEDIPVEELRGFLRGYLFYFGKGERDTSKMRVLESGRSDIKVKNITDISQKTLRIADLQGKTSYHLVLRAYTDGGVGPEKSMYVVTKENSVGLIIAILIPVAVAVIVGVVTSILCYRKREWIKETFYPDIPNPENCKALQFQKSVCEGSSALKTLEMNPCTPNNVEVLETRSAFPKIEDTEIISPVAERPEDRSDAEPENHVVVSYCPPIIEEEIPNPAADEAGGTAQVIYIDVQSMYQPQAKPEEKKKKSRSSRSKI
Kd [4]: 2.4 nM
